The record followed here is patent EP0568622B1.

This assay addresses rat/human corticotropin releasing factor (r/h CRF), 41-residue peptide (rat/human (same molecule)). The experiment in a line: method not stated.

As to “recombinant rat CRF-binding protein (rCRF-BP), secreted by transfected COS7 cells”, the Kd (commonly the free concentration of one partner at which half of the binding sites on the other are occupied at equilibrium, for simple one-to-one binding) is 0.1 nM.
